Results: patent publication US20180335433A1, “COMPOSITIONS TARGETING PKC-THETA AND USES AND METHODS OF TREATING PKC-THETA PATHOLOGIES, ADVERSE IMMUNE RESPONSES AND DISEASES” (La Jolla Institute for Allergy and Immunology, priority 2011, published 2018)

Columns and labels:
endogenous PKCθ = experiment: IS localization in OT-II CD4+ T cells conjugated with Ova-loaded APCs (confocal); format: cell-based, mouse; conditions: OT-II TCR-Tg CD4+ T cells
Procedure: (FIG. 6A) OT-II CD4^+ T cells were infected with retrovirus expressing Myc-tagged V3 domain, V3 mutated at P330/1/4/6A (V3-4PA), or PR motif-deleted V3 (V3-ΔPR). Infected cells (green) were harvested, stimulated, and fixed. Conjugates were stained with anti-Myc plus a secondary Alexa 555-coupled antibody (orange), and anti-PKCθ plus a secondary Alexa 647-coupled antibody (red). Cells were analyzed as in FIG. 1A. (FIG. 6B) Quantitative analysis of the results shown in (FIG. 6A) from 30-50 T-APC conjugates. ** p<0.05. (FIG. 6C) MCC-specific T hybridoma cells were cotransfected with indicated vector, together with RE/AP-Luc and β-Gal reporter plasmids. Cells were stimulated and analyzed as in FIG. 1C. (FIG. 6D) Naïve CD4^+ T cells from B6 mice stimulated with anti-CD3 plus anti-CD28 mAbs and differentiated in vitro under Th1-, Th2- or Th17-polarizing conditions were retrovirally transduced with empty pMIG vector, or with the indicated PKCθ V3 vectors. Cytokine-producing cells were analyzed by intracellular staining 8 h after restimulation. Right panels represent cumulative data showing percentage of cytokine-producing cells by intracellular staining. (FIG. 6E) MCC-specific T hybridoma cells were cotransfected with the indicated plasmids, together with NFAT luciferase reporter and a β-Gal reporter plasmid. Cells were incubated with fibroblasts that express I-E^K and B7-1 in the absence or presence of MCC peptide for 6 hrs. Normalized luciferase activity was determined in triplicates.
Full-length human PKCθ and its derivatives were cloned as a GFP fusion protein in the pMX retroviral vector. Retroviral supernatants were used to infect preactivated CD4^+ T cells from PKCθ^−/− or WT OT-II mice. Transduced cells were rested for an additional three days. On the day of experiment, APC were prepared from WT B6 splenocytes that were depleted of CD4^+ T cells using anti-CD4 (L3T4) mAb-coated beads. T-depleted APC were stained with 20 μM of cell tracker blue (CMAC) and then pulsed with 5 μM Ova peptide, respectively, for 30 min at 37° C. T cell-APC conjugation was carried out at 37° C. for 20 min before fixation with 4% paraformaldehyde and permeabilization with PBS supplemented with 1% BSA and 0.1% Triton X-100. […] Immunofluorescene images were captured using a Marianas digital fluorescence-microscopy system (Intelligent Imaging Innovations) as described (Becart, S. et al. Immunity 29, 704-719 (2008)).
Given the critical role of the PKCθ V3 domain in the enzyme's CD28 association, IS localization, and activation of downstream targets, ectopic expression of the isolated V3 domain was analyzed for interference with the localization and function of PKCθ in stimulated T cells. […]

[1] = system: Naïve CD4+ T cells from B6 mice, Treg (FoxP3+) cells; experiment: In vitro Treg (FoxP3+) differentiation of retrovirally transduced CD4+ T cells; format: cell-based, mouse; conditions: Treg-polarizing conditions (IL-2+TGFβ), GFP+FoxP3+ cells
Procedure: (§1) Naïve CD4+ T cells from B6 mice stimulated with anti-CD3 plus anti-CD28 mAbs and differentiated in vitro under Treg-polarizing conditions (IL-2+TGFβ) were retrovirally transduced with empty pMIG vector, or with the indicated PKCθ V3 vectors. Transduced (GFP+) cells were sorted and FoxP3+ cells were analyzed by intracellular staining.
as §1, with “CD4^+” for “CD4+”, “(GFP+)” for “(GFP+) cells were sorted and”, “intracellular staining 8 hours after restimulation. Right panels represent cumulative data showing percentage of GFP+FoxP3+ cells by intracellular” for “intracellular”

[2] = system: Th2-mediated lung inflammation; experiment: Th2-mediated Ova-induced airway inflammation after adoptive transfer of transduced OT-II Th2 cells; format: in vivo, mouse; conditions: transferred Th2 cells, aerosolized Ova 3 consecutive days
From the text: (FIG. 7A-7D) OT-II CD4^+ T cells stimulated with anti-CD3 plus anti-CD28 mAbs and differentiated in vitro under Th2 (FIG. 7A-7C) or Th1 (FIG. 7D, 7E)-polarizing conditions were retrovitrally transduced with the same PKCθ V3 vectors as in FIG. 6. Sorted GFP^+ populations were adoptively transferred into naïve B6 mice, which were challenged with aerosolized Ova for 3 consecutive days. BAL fluid were obtained 1 d post-challenge and analyzed for total mononuclear cell infiltration (FIG. 7A, 7D) and cytokine expression using IL-4 (FIG. 7B), IL-5 (FIG. 7C) and IFN-γ (FIG. 7E) ELISA.
CD4^+ T cells from OT-II B6 mice were isolated and cultured with plate-bound anti-CD3 (5 μg/ml), soluble anti-CD28 (2.5 μg/ml) and IL-2 (100 U/ml) under Th1 or Th2 polarizing conditions. The cells were retrovirally infected on days 2-4 and cultured for an additional 3 days. GFP^+ cells were sorted, and 1×10^6 cells were injected intravenously into naïve WT B6 mice. One day later, mice received aerosolized Ova (5 mg/ml in 20 ml PBS) for 30 min, once a day for 3 consecutive days, using ultrasonic nebulization. Mice were sacrificed 24 h after the last challenge and assessed for lung inflammation. Collection of BAL fluid and determination of cytokine levels were carried out as described (Salek-Ardakani, S. et al. J Immunol 173, 6440-6447 (2004)).
The above findings were extended to an in vivo antigen-specific inflammatory response in an airway inflammation model, using a T cell adoptive transfer system. Mice receiving OT-II Th2 cells transduced with an empty vector developed an inflammatory response by comparison with PBS-challenged control mice, as evidenced by a significant increase in the number of infiltrating leukocytes in the bronchoalveolar lavages (BAL) fluid (FIG. 7a) and in the levels of signature Th2 cytokines, IL-4 (FIG. 7b) and IL-5 (FIG. 7c).

B1: V3-4PA: V3 mutated at P330/1/4/6A (4 Pro residues in the Pro-rich motif to Ala) (protein)
chain: MSPFLRIGLSNFDCGSCQSCQGEAVNPYCAVLVKEYVESENGQMYIQKKPTMYPPWDSTFDAHINKGRVMQIIVKGKNVDLISETTVELYSLAERCRKNNGKTEIWLELKPQGRMLMNARYFLEMSDTKDMNEFETEGFFALHQRRGAIKQAKVHHVKCHEFTATFFPQPTFCSVCHEFVWGLNKQGYQCRQCNAAIHKKCIDKVIAKCTGSAINSRETMFHKERFKIDMPHRFKVYNYKSPTFCEHCGTLLWGLARQGLKCDACGMNVHHRCQTKVANLCGINQKLMAEALAMIESTQQARCLRDTEQIFREGPVEIGLPCSIKNEARAACLATAGKREPQGISWESPLDEVDKMCHLPEPELNKERPSLQIKLKIEDFILHKMLGKGSFGKVFLAEFKKTNQFFAIKALKKDVVLMDDDVECTMVEKRVLSLAWEHPFLTHMFCTFQTKENLFFVMEYLNGGDLMYHIQSCHKFDLSRATFYAAEIILGLQFLHSKGIVYRDLKLDNILLDKDGHIKIADFGMCKENMLGDAKTNTFCGTPDYIAPEILLGQKYNHSVDWWSFGVLLYEMLIGQSPFHGQDEEELFHSIRMDNPFYPRWLEKEAKDLLVKLFVREPEKRLGVRGDIRQHPLFREINWEELERKEIDPPFRPKVKSPFDCSNFDKEFLNEKPRLSFADRALINSMDQNMFRNFSFMNPGMERLIS
Q: With B1 as the molecule, how does the “effect on IS localization of endogenous PKCθ” value (endogenous PKCθ) read?
A: did not interfere with the IS localization of endogenous PKCθ

Q: And the “subcellular localization of the transduced V3 protein” value (endogenous PKCθ)?
A: did not localize anymore in the IS

Q: What about the “promotion of Treg differentiation” value [1] of the same molecule?
A: not

Q: What about the “inhibition of the Th2 inflammatory response” value [2] of the same molecule?
A: partially rescued the inhibition
